Data from patent publication US20230227508A1, “SPLIT INTEIN-BASED SELECTION FOR PEPTIDE BINDERS” (priority 2020, published 2023).

Test system: Bacillus subtilis PY79
Assay: Haloduracin agar spot assay on indicator strain
Assay type: cell-based
Conditions: 5 μL of cleaved, desalted core peptide in 1:1 methanol:water on LB-agar
Method: To assay for antimicrobial activity, the cleaved and desalted core peptides were resuspended in 50 μL 1:1 methanol:water. Bacillus subtilis PY79 was used as indicator strain and was spread on a LB-agar surface, on which 5 μL of either or both haloduracins or a solvent control was added.

Molecule | antibacterial activity, growth inhibition on agar
haloduracin A1 (peptide) MTNLLKEWKMPLERTHNNSNPAGDIFQELEDQDILAGVNGAENLYFQGCAWYNISCRLGNKGAYCTLTVECMPSCN | minimal antibacterial activity
haloduracin A2 (peptide) MVNSKDLRNPEFRKAQGLQFVDEVNEKELSSLAGSENLYFQGTTWPCATVGVSVALCPTTKCTSQC | minimal antibacterial activity
